Data reported in PMC10397247.

Legend:
[1] = target: T1, 4H741-bN; test: two-hybrid library CCNG1;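 further: natural log of median RNA to DNA barcode read ratio; higher means stronger binding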
T1 chain: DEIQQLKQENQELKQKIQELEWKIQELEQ

[2] = target: T2, P1A-bS; test: two-hybrid library CCNG1;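 further: natural log of median RNA to DNA barcode read ratio; higher means stronger binding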
T2 chain: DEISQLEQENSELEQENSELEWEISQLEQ

[3] = target: T3, 4H796-bA; test: two-hybrid library CCNG1;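 further: natural log of median RNA to DNA barcode read ratio; higher means stronger binding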
T3 chain: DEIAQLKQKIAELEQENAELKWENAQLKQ

[4] = target: T4, 4H492-bN; test: two-hybrid library CCNG1;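 further: natural log of median RNA to DNA barcode read ratio; higher means stronger binding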
T4 chain: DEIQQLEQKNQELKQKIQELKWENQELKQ

[5] = target: T5, 4H346-bH; test: two-hybrid library CCNG1
T5 chain: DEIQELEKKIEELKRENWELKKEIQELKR

[6] = target: T6, 4H3926-bH; test: two-hybrid library CCNG1
T6 chain: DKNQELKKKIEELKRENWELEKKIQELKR

[7] = target: T7, 4H683-bH; test: two-hybrid library CCNG1
T7 chain: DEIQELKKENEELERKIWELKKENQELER

[8] = target: T8, 4H797-bH; test: two-hybrid library CCNG1
T8 chain: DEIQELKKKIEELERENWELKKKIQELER

[9] = target: T9, 4H2673-bH; test: two-hybrid library CCNG1
T9 chain: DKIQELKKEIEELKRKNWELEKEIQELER

[10] = target: T10, 4H1831-bH; test: two-hybrid library CCNG1
T10 chain: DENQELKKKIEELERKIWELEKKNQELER

[11] = target: T11, 4H2586-bH; test: two-hybrid library CCNG1
T11 chain: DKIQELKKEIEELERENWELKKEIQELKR

[12] = target: T12, 4H4073-bH; test: two-hybrid library CCNG1
T12 chain: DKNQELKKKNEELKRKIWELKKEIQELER

[13] = target: T13, 4H2627-bH; test: two-hybrid library CCNG1
T13 chain: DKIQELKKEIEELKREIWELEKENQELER

[14] = target: T14, 4H575-bH; test: two-hybrid library CCNG1
T14 chain: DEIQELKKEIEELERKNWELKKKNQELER

[15] = target: T15, 4H3112-bH; test: two-hybrid library CCNG1
T15 chain: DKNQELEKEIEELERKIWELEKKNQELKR

[16] = target: T16, 4H918-bH; test: two-hybrid library CCNG1
T16 chain: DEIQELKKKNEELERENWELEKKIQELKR

[17] = target: T17, 4H780-bH; test: two-hybrid library CCNG1
T17 chain: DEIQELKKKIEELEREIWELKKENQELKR

[18] = target: T18, 4H855-bH; test: two-hybrid library CCNG1
T18 chain: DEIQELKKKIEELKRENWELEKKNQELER

[19] = target: T19, 4H457-bH; test: two-hybrid library CCNG1
T19 chain: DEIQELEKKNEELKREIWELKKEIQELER

[20] = target: T20, 4H953-bH; test: two-hybrid library CCNG1
T20 chain: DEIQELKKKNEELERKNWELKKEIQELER

[21] = target: T21, 4H2702-bH; test: two-hybrid library CCNG1
T21 chain: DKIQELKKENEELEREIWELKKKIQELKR

[22] = target: T22, 4H3427-bH; test: two-hybrid library CCNG1
T22 chain: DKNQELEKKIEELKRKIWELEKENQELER

[23] = target: T23, 4H968-bH; test: two-hybrid library CCNG1
T23 chain: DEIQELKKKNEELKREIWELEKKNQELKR

[24] = target: T24, 4H754-bH; test: two-hybrid library CCNG1
T24 chain: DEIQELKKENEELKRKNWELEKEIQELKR

[25] = target: T25, 4H3010-bH; test: two-hybrid library CCNG1
T25 chain: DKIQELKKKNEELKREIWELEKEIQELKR

[26] = target: T26, 4H170-bH; test: two-hybrid library CCNG1
T26 chain: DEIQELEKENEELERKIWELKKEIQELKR

[27] = target: T27, 4H2717-bA; test: two-hybrid library CCNG1
T27 chain: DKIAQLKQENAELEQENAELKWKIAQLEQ

[28] = target: T28, 4H2839-bA; test: two-hybrid library CCNG1
T28 chain: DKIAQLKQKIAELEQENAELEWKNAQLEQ

[29] = target: T29, 4H3277-bA; test: two-hybrid library CCNG1
T29 chain: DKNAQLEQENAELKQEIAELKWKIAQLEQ

[30] = target: T30, 4H319-bA; test: two-hybrid library CCNG1
T30 chain: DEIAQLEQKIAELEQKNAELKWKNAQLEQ

[31] = target: T31, 4H2223-bA; test: two-hybrid library CCNG1
T31 chain: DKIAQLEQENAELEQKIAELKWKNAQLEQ

[32] = target: T32, 4H2588-bA; test: two-hybrid library CCNG1
T32 chain: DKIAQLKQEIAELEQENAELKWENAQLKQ

[33] = target: T33, 4H40-bA; test: two-hybrid library CCNG1
T33 chain: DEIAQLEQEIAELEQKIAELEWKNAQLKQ

[34] = target: T34, 4H348-bA; test: two-hybrid library CCNG1
T34 chain: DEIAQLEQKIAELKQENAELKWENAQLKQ

[35] = target: T35, 4H2473-bA; test: two-hybrid library CCNG1
T35 chain: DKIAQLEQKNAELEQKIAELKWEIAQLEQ

[36] = target: T36, 4H3057-bA; test: two-hybrid library CCNG1
T36 chain: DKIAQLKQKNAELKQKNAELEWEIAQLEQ

[37] = target: T37, 4H2438-bA; test: two-hybrid library CCNG1
T37 chain: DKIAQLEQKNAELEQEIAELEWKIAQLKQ

[38] = target: T38, 4H2503-bA; test: two-hybrid library CCNG1
T38 chain: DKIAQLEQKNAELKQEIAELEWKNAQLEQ

[39] = target: T39, 4H477-bA; test: two-hybrid library CCNG1
T39 chain: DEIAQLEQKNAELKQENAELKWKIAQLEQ

[40] = target: T40, 4H2692-bA; test: two-hybrid library CCNG1
T40 chain: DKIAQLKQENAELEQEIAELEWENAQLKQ

[41] = target: T41, 4H741-bA; test: two-hybrid library CCNG1
T41 chain: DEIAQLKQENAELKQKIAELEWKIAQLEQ

[42] = target: T42, 4H492-bA; test: two-hybrid library CCNG1
T42 chain: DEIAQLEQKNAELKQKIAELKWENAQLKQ

[43] = target: T43, 4H2915-bA; test: two-hybrid library CCNG1
T43 chain: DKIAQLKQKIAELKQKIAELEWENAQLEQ

[44] = target: T44, 4H465-AA; test: two-hybrid library CCmax; conditions: mean of both orientations
T44 chain: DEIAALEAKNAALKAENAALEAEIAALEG

[45] = target: T45, 4H2898-AA; test: two-hybrid library CCmax; conditions: mean of both orientations
T45 chain: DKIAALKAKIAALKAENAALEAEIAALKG

[46] = target: T46, 4H3705-AA; test: two-hybrid library CCmax; conditions: mean of both orientations
T46 chain: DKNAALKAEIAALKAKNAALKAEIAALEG

[47] = target: T47, 4H3782-AA; test: two-hybrid library CCmax; conditions: mean of both orientations
T47 chain: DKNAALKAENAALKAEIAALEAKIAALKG

[48] = target: T48, 4H58-AA; test: two-hybrid library CCmax; conditions: mean of both orientations
T48 chain: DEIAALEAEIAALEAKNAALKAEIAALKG

[49] = target: T49, 4H656-AA; test: two-hybrid library CCmax
T49 chain: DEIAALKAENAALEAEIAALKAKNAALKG

[50] = target: T50, 4H1802-AA; test: two-hybrid library CCmax
T50 chain: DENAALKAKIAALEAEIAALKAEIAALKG

[51] = target: T51, 4H355-AA; test: two-hybrid library CCmax; conditions: mean of both orientations
T51 chain: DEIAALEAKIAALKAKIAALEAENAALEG

[52] = target: GCN2_T; test: two-hybrid library CCmax
[53] = target: T52, 4H895-AA; test: two-hybrid library CCmax; conditions: mean of both orientations
T52 chain: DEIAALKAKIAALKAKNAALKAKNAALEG

[54] = target: T53, 4H3365-AA; test: two-hybrid library CCmax; conditions: mean of both orientations
T53 chain: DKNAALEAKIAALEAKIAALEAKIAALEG

[55] = target: T54, 4H3651-AA; test: two-hybrid library CCmax; conditions: mean of both orientations
T54 chain: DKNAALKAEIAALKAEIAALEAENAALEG

[56] = target: T55, 4H_APH; test: two-hybrid library CCmax; conditions: mean of both orientations
T55 chain: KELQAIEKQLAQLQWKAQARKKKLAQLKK

[57] = target: T56, 4H486-AA; test: two-hybrid library CCmax; conditions: mean of both orientations
T56 chain: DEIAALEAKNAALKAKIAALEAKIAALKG

[58] = target: T57, 4H2721-AA; test: two-hybrid library CCmax; conditions: mean of both orientations
T57 chain: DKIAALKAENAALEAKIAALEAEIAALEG

[59] = target: T58, 4H_BCR; test: two-hybrid library CCmax; conditions: mean of both orientations
T58 chain: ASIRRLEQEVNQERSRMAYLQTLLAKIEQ

[60] = target: T59, 4H2600-AA; test: two-hybrid library CCmax; conditions: mean of both orientations
T59 chain: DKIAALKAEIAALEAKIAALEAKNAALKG

[61] = target: T60, 4H2750-AA; test: two-hybrid library CCmax; conditions: mean of both orientations
T60 chain: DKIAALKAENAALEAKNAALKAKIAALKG

[62] = target: T61, 4H535-AA; test: two-hybrid library CCmax; conditions: mean of both orientations
T61 chain: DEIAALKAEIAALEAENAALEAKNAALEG

[63] = target: T62, 4H3020-AA; test: two-hybrid library CCmax; conditions: mean of both orientations
T62 chain: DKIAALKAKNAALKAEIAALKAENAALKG

[64] = target: 4H_GCN4; test: two-hybrid library CCmax
Sequence of 4H_GCN4 (chain, as listed by the source): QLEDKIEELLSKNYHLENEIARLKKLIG

B1: 4H492-bN (peptide)
chain: DEIQQLEQKNQELKQKIQELKWENQELKQ
interaction score [1]: -0.326
interaction score [2]: -1.07
interaction score [3]: 0.0979
interaction score [4]: -0.118

B2: 4H170-bH (peptide)
chain: DEIQELEKENEELERKIWELKKEIQELKR
interaction score [5]: -0.205
interaction score [6]: 0.549
interaction score [7]: -0.173
interaction score [8]: 0.264
interaction score [9]: -0.0221
interaction score [10]: -0.0127
interaction score [11]: -1.02
interaction score [12]: 1.14
interaction score [13]: 0.774
interaction score [14]: -1.59
interaction score [15]: 0.343
interaction score [16]: 0.183
interaction score [17]: -0.492
interaction score [18]: -0.762
interaction score [19]: 1.82
interaction score [20]: 0.0231
interaction score [21]: 1.84
interaction score [22]: 0.596
interaction score [23]: 1.47
interaction score [24]: 1.02
interaction score [25]: 2.38
interaction score [26]: 0.761

B3: 4H2223-bA (peptide)
chain: DKIAQLEQENAELEQKIAELKWKNAQLEQ
interaction score [27]: -0.279
interaction score [28]: -0.368
interaction score [29]: -0.571
interaction score [30]: -0.61
interaction score [31]: 0.291
interaction score [32]: -0.336
interaction score [33]: -1.46
interaction score [34]: -1.22
interaction score [35]: -0.247
interaction score [36]: 0.223
interaction score [37]: 0.457
interaction score [38]: 1.47
interaction score [39]: -1.47
interaction score [40]: -0.196
interaction score [41]: 0.169
interaction score [42]: 1.49
interaction score [43]: 0.32

B4: 4H1802-AA (peptide)
chain: DENAALKAKIAALEAEIAALKAEIAALKG
interaction score [44]: -1.48
interaction score [45]: -1.81
interaction score [46]: -1.42
interaction score [47]: -1.38
interaction score [48]: -1.15
interaction score [49]: -2.89
interaction score [50]: 1.63
interaction score [51]: -0.981
interaction score [52]: -1.36
interaction score [53]: -1.85
interaction score [54]: -1.3
interaction score [55]: -1.48
interaction score [56]: -1.86
interaction score [57]: -1.28
interaction score [58]: -1.29
interaction score [59]: -1.68
interaction score [60]: -0.95
interaction score [61]: -1.63
interaction score [62]: -1.73
interaction score [63]: -1.81
interaction score [64]: -1.26
